Laboratory results as given in PMC9944232.

Key:
AIFΔ101 K510A/K518A = AIFΔ101 K510A/K518A (Homo sapiens, UniProt O95831 102-613, K510A;K518A); experiment: ITC; binary; ITC: 50 mM potassium phosphate pH 7.4, 15 °C (25 °C with CypA); EMSA: same buffer, 25 °C, 30 min, 2% agarose; AFM on mica at room temperature; conditions: protein: recombinant; tags: N-terminal His6; blunt
AIFΔ101 D489A/K518A = AIFΔ101 D489A/K518A (Homo sapiens, UniProt O95831 102-613, D489A;K518A); experiment: as above; conditions: protein: recombinant; tags: N-terminal His6; blunt
[1] = molecular target: AIFΔ101 WT;CypA;Histone H2AX (Homo sapiens;Homo sapiens;Homo sapiens, UniProt O95831;P62937;P16104 102-613;1-165;1-143, ||); experiment: ITC; dsDNA titrated into AIF:CypA with varied H2AX; intrinsic Kd from cooperativity fit, alpha 9.7; ITC: 50 mM potassium phosphate pH 7.4, 15 °C (25 °C with CypA); EMSA: same buffer, 25 °C, 30 min, 2% agarose; AFM on mica at room temperature; conditions: protein: recombinant;recombinant;recombinant; tags: N-terminal His6;N-terminal His6;N-terminal His6 (PreScission site); copies: 1;1;1; blunt
Histone H2AX = Histone H2AX (Homo sapiens, UniProt P16104 1-143); experiment: ITC; binary; stronger than CypA; value in Table S4 not in material; ITC: 50 mM potassium phosphate pH 7.4, 15 °C (25 °C with CypA); EMSA: same buffer, 25 °C, 30 min, 2% agarose; AFM on mica at room temperature; conditions: protein: recombinant; tags: N-terminal His6 (PreScission site); blunt
AIFΔ101 WT = AIFΔ101 WT (Homo sapiens, UniProt O95831 102-613); experiment: ITC; binary, no added metal; 15 °C; ITC: 50 mM potassium phosphate pH 7.4, 15 °C (25 °C with CypA); EMSA: same buffer, 25 °C, 30 min, 2% agarose; AFM on mica at room temperature; conditions: protein: recombinant; tags: N-terminal His6; blunt
AIFΔ101 WT;CypA = AIFΔ101 WT;CypA (Homo sapiens;Homo sapiens, UniProt O95831;P62937 102-613;1-165, |); experiment: ITC; dsDNA titrated into AIF:CypA 1:1; negative cooperativity; ITC: 50 mM potassium phosphate pH 7.4, 15 °C (25 °C with CypA); EMSA: same buffer, 25 °C, 30 min, 2% agarose; AFM on mica at room temperature; conditions: protein: recombinant;recombinant; tags: N-terminal His6;N-terminal His6; copies: 1;1; blunt
AIFΔ101 WT;Histone H2AX = AIFΔ101 WT;Histone H2AX (Homo sapiens;Homo sapiens, UniProt O95831;P16104 102-613;1-143, |); experiment: ITC; dsDNA titrated into AIF:H2AX 1:1; positive cooperativity; ITC: 50 mM potassium phosphate pH 7.4, 15 °C (25 °C with CypA); EMSA: same buffer, 25 °C, 30 min, 2% agarose; AFM on mica at room temperature; conditions: protein: recombinant;recombinant; tags: N-terminal His6;N-terminal His6 (PreScission site); copies: 1;1; blunt
Chain of AIFΔ101 WT;Histone H2AX (O95831 102-613, stated change not applied, chain 1 of 2, other chains not shown): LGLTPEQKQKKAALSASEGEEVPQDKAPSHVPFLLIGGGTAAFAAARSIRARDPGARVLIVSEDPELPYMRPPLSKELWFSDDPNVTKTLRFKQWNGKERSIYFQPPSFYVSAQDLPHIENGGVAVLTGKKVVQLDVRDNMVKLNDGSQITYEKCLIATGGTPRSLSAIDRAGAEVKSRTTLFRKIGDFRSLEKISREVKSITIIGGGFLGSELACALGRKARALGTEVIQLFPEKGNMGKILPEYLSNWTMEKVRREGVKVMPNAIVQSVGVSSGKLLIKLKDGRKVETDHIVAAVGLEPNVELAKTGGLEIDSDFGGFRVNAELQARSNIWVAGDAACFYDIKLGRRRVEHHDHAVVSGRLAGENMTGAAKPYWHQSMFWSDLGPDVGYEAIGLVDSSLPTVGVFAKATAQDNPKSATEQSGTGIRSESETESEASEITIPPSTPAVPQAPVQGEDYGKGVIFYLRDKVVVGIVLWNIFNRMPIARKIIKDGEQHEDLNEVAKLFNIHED

Chain of AIFΔ101 D489A/K518A (O95831 102-613 D489A/K518A): as the sequence (O95831 102-613, stated change not applied, chain 1 of 2, other chains not shown) above, with D388A, K417A counted along it
Chain of AIFΔ101 WT;CypA;Histone H2AX (O95831 102-613, stated change not applied, chain 1 of 3, other chains not shown): as the sequence (O95831 102-613, stated change not applied, chain 1 of 2, other chains not shown) above
Chain of AIFΔ101 WT;CypA;Histone H2AX (P62937 whole entry, stated change not applied, chain 2 of 3, other chains not shown): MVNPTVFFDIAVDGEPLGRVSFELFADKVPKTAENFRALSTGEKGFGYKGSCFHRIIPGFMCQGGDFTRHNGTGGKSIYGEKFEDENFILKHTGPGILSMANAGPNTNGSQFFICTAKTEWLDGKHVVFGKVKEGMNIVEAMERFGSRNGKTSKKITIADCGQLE
Chain of AIFΔ101 WT;CypA (O95831 102-613, stated change not applied, chain 1 of 2): as the sequence (O95831 102-613, stated change not applied, chain 1 of 2, other chains not shown) above
Chain of AIFΔ101 WT;CypA (P62937 whole entry, stated change not applied, chain 2 of 2): as the sequence (P62937 whole entry, stated change not applied, chain 2 of 3, other chains not shown) above
Chain of AIFΔ101 WT (O95831 102-613, stated change not applied): as the sequence (O95831 102-613, stated change not applied, chain 1 of 2, other chains not shown) above
Chain of AIFΔ101 K510A/K518A (O95831 102-613 K510A/K518A): as the sequence (O95831 102-613, stated change not applied, chain 1 of 2, other chains not shown) above, with K409A, K417A counted along it

B1: 15-bp dsDNA (dsDNA)
DNA 1: GGTTAGTTATGCGCG
DNA 2: CGCGCATAACTAACC
- Kd (AIFΔ101 K510A/K518A): 500 nM
- Kd (AIFΔ101 D489A/K518A): 500 nM
- Kd [1]: 9100 nM
- binding result (Histone H2AX): binds
- Kd (AIFΔ101 WT): 2900 nM
- binding result (AIFΔ101 WT;CypA): binds
- binding result (AIFΔ101 WT;Histone H2AX): binds
